# Measurements published in publication PMC5507773.
# Target: LIMD1 (UniProt Q9UGP4)
# Experiment: co-IP of Xpr-LIMD1 with EYFP-AGO2
# Details: reference: wild type; sites S387
substance,measurement,value
AGO2 (from UniProt Q9UKV8) S387A,binding against the reference,weaker
